Normalised SPOT signal, Boehringer light units (BLU); mean over the file's lines of this peptide data for 54 molecules are collected here from PMC314469, “Protein Interaction Networks by Proteome Peptide Scanning” (PLoS Biology, 2004).

The labels stand for the following.
T1: Abp1 SH3 (ABP1_YEAST), P15891
T1 chain: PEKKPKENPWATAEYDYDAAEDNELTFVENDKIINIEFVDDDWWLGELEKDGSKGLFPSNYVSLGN

B1: YGR230W 120-133 (peptide)
chain: LEFVRGKQNIPRKP
B2: YGL131C 1252-1264 (peptide)
chain: LEGNELYPLSYKP
B3: YGR197C 50-62 (peptide)
chain: KSLEDYRPPDEKP
B4: YMR184W 66-78 (peptide)
chain: KTATTPPPVLRRP
B5: YLR427W 248-260 (peptide)
chain: LSGSIIGPKRVKP
B6: YJL095W 316-329 (peptide)
chain: KSPSNIKLSIPARP
B7: YIL030C 763-775 (peptide)
chain: KSNLLSVPEAYKP
B8: YPL074W 344-356 (peptide)
chain: KRYDYKKPTVNRP
B9: YJR066W 2073-2086 (peptide)
chain: LELAVPGTYFPGKP
B10: YLR428C 53-65 (peptide)
chain: LEARTNFPLILRP
B11: YGR193C 231-243 (peptide)
chain: LDLSNIKPIQLKP
B12: YIL171W 41-54 (peptide)
chain: LDATEAPIDLPQKP
B13: YDR409W 855-868 (peptide)
chain: KSRLIVNPFIPRRP
B14: YDR389W 506-518 (peptide)
chain: KRRTSLFPWLHKP
B15: YGL251C 1061-1073 (peptide)
chain: KYIKEKGPSSIKP
B16: YOL021C 286-298 (peptide)
chain: LEGSVSLPRFSKP
B17: YER025W 165-177 (peptide)
chain: KSDKEISPKSQRP
B18: YNL284C 230-242 (peptide)
chain: LEKRGRVPLQARP
B19: YGR084C 83-96 (peptide)
chain: KTREPLQPRPPVKP
B20: YKL126W 608-621 (peptide)
chain: KRLLMKGYIPPYKP
B21: YKR003W 302-315 (peptide)
chain: KVFLDTHKESPLRP
B22: YDR285W 822-834 (peptide)
chain: LELTNPSPIQIKP
B23: YPL004C 227-239 (peptide)
chain: LDDSPVTPGEARP
B24: YIR007W 614-626 (peptide)
chain: KSGSSQPPSFIKP
B25: YHR006W 264-276 (peptide)
chain: KSRHFTYPEGVKP
B26: YJL219W 41-54 (peptide)
chain: LDATEPPIDLPQKP
B27: YBR003W 113-125 (peptide)
chain: KSDVPEDPIYSKP
B28: YBR236C 423-435 (peptide)
chain: KVKQYIEPESVKP
B29: YGR086C 227-239 (peptide)
chain: LDDSPVTPGETRP
B30: YOR023C 257-270 (peptide)
chain: LDEQPGFQILPFKP
B31: YHR204W 395-408 (peptide)
chain: LDNILPLEWYPLRP
B32: YHR184W 123-135 (peptide)
chain: KSELPKSPYRQKP
B33: YPR084W 202-215 (peptide)
chain: KSILHGLADEPRRP
B34: YOR365C 124-137 (peptide)
chain: LSGIQDNLLSPLKP
B35: YDL058W 339-351 (peptide)
chain: LAFFHNIPKKVRP
B36: YHR077C 993-1005 (peptide)
chain: KVVASKIPVISKP
B37: YLL051C 566-579 (peptide)
chain: LDHAIKLSRNPDKP
B38: YPL167C 291-304 (peptide)
chain: LEKLGDISDIPVKP
B39: YGR109W-B 563-576 (peptide)
chain: KYREIIRNDLPPRP
B40: YDL033C 211-223 (peptide)
chain: LAKYAGLPTAEKP
B41: YMR044W 279-292 (peptide)
chain: KTKAKKEKPKPPKP
B42: YOL156W 41-54 (peptide)
chain: LDANEPPIDLPQKP
B43: YAL011W 331-343 (peptide)
chain: KRSLEENPVNKRP
B44: YBR136W 497-510 (peptide)
chain: KTGNPFVRINPNRP
B45: YGL202W 197-209 (peptide)
chain: KVMENWTPGAPKP
B46: YPL029W 708-720 (peptide)
chain: LDRLKKNPYAHKP
B47: YMR168C 296-309 (peptide)
chain: LSGSDYLQSGPRKP
B48: YLR429W 427-439 (peptide)
chain: LEEKKEQPKVEKP
B49: YBR056W 390-403 (peptide)
chain: LAPMMQKGNLPKRP
B50: YML002W 638-650 (peptide)
chain: KSYRKAFPNMVKP
B51: YGR084C 56-68 (peptide)
chain: KTDAKLKPFIYRP
B52: YOL066C 148-160 (peptide)
chain: KVHRHEPPVTSKP
B53: YER093C 582-594 (peptide)
chain: LDVLKIKPLPYKP
B54: YGL207W 558-570 (peptide)
chain: KSQTIILPIYGRP

The experiment concerns the target T1, Abp1 SH3 (ABP1_YEAST), P15891. Put plainly: SPOT array.
B1 had a normalised SPOT signal, Boehringer light units (BLU); mean over the file's lines of this peptide of 800. Under B2 stands 65.6. Under B3 stands 161; under B4, 9110.

B5 yielded a normalised SPOT signal, Boehringer light units (BLU); mean over the file's lines of this peptide of 466. Molecule B6 returned a normalised SPOT signal, Boehringer light units (BLU); mean over the file's lines of this peptide of 107. Under B7 stands 200. Under B8 stands 71.4. B9 registered a normalised SPOT signal, Boehringer light units (BLU); mean over the file's lines of this peptide of 40. B10 yielded a normalised SPOT signal, Boehringer light units (BLU); mean over the file's lines of this peptide of 84.3. The same measure for B11: 176; for B12: 77.8; for B13: 360.

B14 yielded a normalised SPOT signal, Boehringer light units (BLU); mean over the file's lines of this peptide of 122. Under B15 stands 104; under B16, 76.1; under B17, 75.6. The same measure for B18: 1240; for B19: 706. Under B20 stands 169; under B21, 73.1; under B22, 82.9. Consider B23, for which the normalised SPOT signal, Boehringer light units (BLU); mean over the file's lines of this peptide came to 57.3.

B24: the normalised SPOT signal, Boehringer light units (BLU); mean over the file's lines of this peptide came out at 69.8. Under B25 stands 55.9; under B26, 125. On to B27, for which the normalised SPOT signal, Boehringer light units (BLU); mean over the file's lines of this peptide turned out to be 19.8. Take B28: the normalised SPOT signal, Boehringer light units (BLU); mean over the file's lines of this peptide is 100. Under B29 stands 64.5; under B30, 160; under B31, 84.7. Under B32 stands 205. The same measure for B33: 98.4; for B34: 110. The molecule B35 displayed a normalised SPOT signal, Boehringer light units (BLU); mean over the file's lines of this peptide of 221.

In the case of B36, the normalised SPOT signal, Boehringer light units (BLU); mean over the file's lines of this peptide amounted to 126. Under B37 stands 97.5; under B38, 138. Molecule B39 gave a normalised SPOT signal, Boehringer light units (BLU); mean over the file's lines of this peptide of 86. With B40, the normalised SPOT signal, Boehringer light units (BLU); mean over the file's lines of this peptide worked out at 55.9. Under B41 stands 119. The same measure for B42: 72.3; for B43: 33.4; for B44: 371.

For the molecule B45, the normalised SPOT signal, Boehringer light units (BLU); mean over the file's lines of this peptide is 106. The same measure for B46: 577.

The molecule B47 displayed a normalised SPOT signal, Boehringer light units (BLU); mean over the file's lines of this peptide of 75.2. The same measure for B48: 86.1; for B49: 3410; for B50: 217. The same measure for B51: 2160; for B52: 69.6. Molecule B53 had a normalised SPOT signal, Boehringer light units (BLU); mean over the file's lines of this peptide of 2070.

As to B54, the normalised SPOT signal, Boehringer light units (BLU); mean over the file's lines of this peptide came to 84.4.
